Experimental findings from article PMC3839042 (Biochemistry, 2013) are described below.

The chains are these.
B1: TRTKM1 (Ac-ARTKIDWNKILS-NH2) (peptide)
peptide: Ac-ARTKIDWNKILS-NH2
B2: TRTKM5 (Ac-TRTKADWNKILS-NH2) (peptide)
peptide: Ac-TRTKADWNKILS-NH2
B3: human S100A2 (natural protein)
chain: not shown
B4: TRTKM6 (Ac-TRTKIAWNKILS-NH2) (peptide)
peptide: Ac-TRTKIAWNKILS-NH2
B5: TRTKM9 (Ac-TRTKIDWNAILS-NH2) (peptide)
peptide: Ac-TRTKIDWNAILS-NH2
B6: TRTKM10 (Ac-TRTKIDWNKALS-NH2) (peptide)
peptide: Ac-TRTKIDWNKALS-NH2
B7: human S100P (natural protein, UniProt P25815 1-95, looked up)
chain: MTELETAMGMIIDVFSRYSGSEGSTQTLTKGELKVLMEKELPGFLQSGKDKDAVDKLLKDLDANGDAQVDFSEFIVFVAAITSACHKYFEKAGLK
B8: human S100B (natural protein, UniProt P04271 1-92, looked up)
chain: MSELEKAMVALIDVFHQYSGREGDKHKLKKSELKELINNELSHFLEEIKEQEVVDKVMETLDNDGDGECDFQEFMAFVAMVTTACHEFFEHE
B9: TRTKM11 (Ac-TRTKIDWNKIAS-NH2) (peptide)
peptide: Ac-TRTKIDWNKIAS-NH2

Where two headings read alike, the source gives them in different places. Where only a bound is given, the exact number is not on record here.

In experiment [1] the target is B7. Briefly: ITC. On the technique in general: Isothermal titration calorimetry measures the heat released or taken up as one component is titrated into another.
The target in experiment [2] is B3. Briefly: other fluorescence titration.
Experiment [3] has as its target B8. The experiment is described as follows: other fluorescence titration.
The target of experiment [4] is B7. The experiment is described as follows: other fluorescence titration.
Experiment [5] has as its target B8. The experiment is described as follows: ITC.
Experiment [6] addresses B3. The experiment is described as follows: ITC.
Experiment [7] addresses T1, TRTK12 wild-type peptide (Ac-…-NH2) (N-terminus acetylated; C-terminus amidated). The experiment is described as follows: other fluorescence titration.
Experiment [8] has as its target T1, TRTK12 wild-type peptide (Ac-…-NH2). Briefly: stopped-flow fluorescence.
Experiment [9] shares this target. The experiment is described as follows: ITC.
For experiment [10] the target is unchanged. Briefly: ITC. This is another data set of the same source.
For experiment [11] the target is unchanged. The experiment is described as follows: other fluorescence titration. This is another data set of the same source.
Experiment [12] has the same target. The experiment is described as follows: stopped-flow fluorescence. This is another data set of the same source.
Experiment [13] shares this target. The experiment is described as follows: stopped-flow fluorescence. The source holds these as a separate data set.
Experiment [14] has the same target. The experiment is described as follows: other fluorescence titration. This is another data set of the same source.
For experiment [15] the target is unchanged. The experiment is described as follows: ITC. This is another data set of the same source.
The target is the same in experiment [16]. The experiment is described as follows: stopped-flow fluorescence. The source holds these as a separate data set.

Chain of human S100A2 (P29034 whole entry): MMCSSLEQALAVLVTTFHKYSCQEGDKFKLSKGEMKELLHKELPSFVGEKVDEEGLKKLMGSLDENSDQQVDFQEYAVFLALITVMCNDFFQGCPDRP

One may read the Kd as the concentration at which binding is half-saturated. In the case of B1, the dissociation constant (Kd) is 2 ± 0.5 µM with human S100P [1]; 16 ± 1 µM in the experiment with human S100A2 [2]; 0.2 ± 0.1 µM with human S100B [3]; 7 ± 3 µM with human S100P [4]; 2.9 ± 1 µM with human S100B [5]; 15.2 ± 1 µM with human S100A2 [6].
Regarding B2, the Kd with human S100P [1] was 56.2 ± 4 µM; with human S100B [3], 0.6 ± 0.6 µM; with human S100P [4], 100 ± 23 µM; with human S100B [5], 1.2 ± 0.4 µM; with human S100A2 [6], 131 ± 6.1 µM.
A word on the koff: it is a measure of how fast the partners let go of each other. As for B3, the Kd worked out at 43 ± 9 µM in [7] and 48 ± 3 µM in experiment [9]. This molecule also yielded a koff in experiment [8] not below 250 s⁻¹.
As for B4, the Kd with human S100P [1] was determined as 7.4 ± 1 µM; with human S100A2 [2] it was 23 ± 3 µM; in the experiment with human S100B [3], 5 ± 1 µM; with human S100B [5], 1.3 ± 0.6 µM; with human S100A2 [6] it was 21.5 ± 4 µM.
As for B5, the Kd with human S100P [1] amounted to 7.1 ± 0.5 µM; with human S100A2 [2] it was 17 ± 4 µM; with human S100B [3], 2 ± 1 µM; in the experiment with human S100P [4], 30 ± 10 µM; with human S100B [5] it was 1.7 ± 0.1 µM; with human S100A2 [6], 45 ± 2 µM.
The molecule B6 registered a dissociation constant (Kd) in the experiment with human S100P [1] of 43.1 ± 3.9 µM.
As a reminder, the kon is the second-order rate constant of association. High values mean fast association, low ones slow association. With B7, the Kd came to 5.1 ± 0.3 µM in experiment [10] and 11 ± 1 µM in [11]. Besides, the koff in experiment [12] stood at 286 s⁻¹. The molecule also came in with an association rate constant (kon) in experiment [12] of 5.6e+07 M⁻¹ s⁻¹.
Regarding B8, the figures for the koff in [13] and in [16] were 53 s⁻¹ and 86 s⁻¹, respectively. This molecule yielded a kon in experiment [13] of 3.1e+07 M⁻¹ s⁻¹. In addition, the values for the Kd in [14] and in [15] were 3 ± 1 µM and 1.7 ± 0.1 µM, respectively.
In the case of B9, the Kd came out at 31.7 ± 0.5 µM in the experiment with human S100P [1], 10 ± 3 µM with human S100B [3], 3.8 ± 1 µM with human S100B [5] and 504 ± 9.7 µM with human S100A2 [6].
